Publication PMC7578760

B1: DUSP6 site #4 (ITC) (dsDNA)
DNA 1: TTGGATTTCATTCACTGGGG
DNA 2: CCCCAGTGAATGAAATCCAA
B2: DUSP6 site #4 (EMSA) (dsDNA)
DNA 1: TTGGATTTCATTCACTGGGG
DNA 2: CCCCAGTGAATGAAATCCAA
B3: DUSP6 site #5 (EMSA) (dsDNA)
DNA 1: GGCAGCTTCATTGAGAGAGA
DNA 2: TCTCTCTCAATGAAGCTGCC
B4: DUSP6 site #6 (ITC) (dsDNA)
DNA 1: GAGAGATTCATTGACACTAA
DNA 2: TTAGTGTCAATGAATCTCTC
B5: DUSP6 mutant site #4 (EMSA) (dsDNA)
DNA 1: TTGGATTTAGCTCACTGGGG
DNA 2: CCCCAGTGAGCTAAATCCAA
B6: DUSP6 site #6 (EMSA) (dsDNA)
DNA 1: GAGAGATTCATTGACACTAA
DNA 2: TTAGTGTCAATGAATCTCTC
B7: DUSP6 site #5 (ITC) (dsDNA)
DNA 1: GGCAGCTTCATTGAGAGAGA
DNA 2: TCTCTCTCAATGAAGCTGCC

Experiments:
CIC-HMG/C1 fusion [1] = target: T1, CIC-HMG/C1 fusion (UniProt Q96RK0-2 188-288+1401-1608, internal_change); assay: ITC
CIC-HMG = CIC-HMG (UniProt Q96RK0-2 188-288); assay: ITC
CIC-HMG/C1 fusion [2] = target: T1, CIC-HMG/C1 fusion; assay: EMSA

Binder	binding result (CIC-HMG/C1 fusion [1])	binding result (CIC-HMG)	binding result (CIC-HMG/C1 fusion [2])
B1	binds	no binding	–
B2	–	–	binds
B3	–	–	binds
B4	binds	–	–
B5	–	–	no binding
B6	–	–	binds
B7	binds	–	–
